{
  "source": "paper PMC7092707",
  "about": "(Biotechniques, 2019)",
  "binders": {"B1": {"name": "dopamine receptor type 2 (receptor, UniProt P14416 1-443, looked up)", "chain": "MDPLNLSWYDDDLERQNWSRPFNGSDGKADRPHYNYYATLLTLLIAVIVFGNVLVCMAVSREKALQTTTNYLIVSLAVADLLVATLVMPWVVYLEVVGEWKFSRIHCDIFVTLDVMMCTASILNLCAISIDRYTAVAMPMLYNTRYSSKRRVTVMISIVWVLSFTISCPLLFGLNNADQNECIIANPAFVVYSSIVSFYVPFIVTLLVYIKIYIVLRRRRKRVNTKRSSRAFRAHLRAPLKGNCTHPEDMKLCTVIMKSNGSFPVNRRRVEAARRAQELEMEMLSSTSPPERTRYSPIPPSHHQLTLPDPSHHGLHSTPDSPAKPEKNGHAKDHPKIAKIFEIQTMPNGKTRTSLKTMSRRKLSQQKEKKATQMLAIVLGVFIICWLPFFITHILNIHCDCNIPPVLYSAFTWLGYVNSAVNPIIYTTFNIEFRKAFLKILHC"}},
  "biological_target": "adenosine A2A receptor (human (endogenous in postmortem ventral …, UniProt P29274 1-412))",
  "sequence (P29274 whole entry)": "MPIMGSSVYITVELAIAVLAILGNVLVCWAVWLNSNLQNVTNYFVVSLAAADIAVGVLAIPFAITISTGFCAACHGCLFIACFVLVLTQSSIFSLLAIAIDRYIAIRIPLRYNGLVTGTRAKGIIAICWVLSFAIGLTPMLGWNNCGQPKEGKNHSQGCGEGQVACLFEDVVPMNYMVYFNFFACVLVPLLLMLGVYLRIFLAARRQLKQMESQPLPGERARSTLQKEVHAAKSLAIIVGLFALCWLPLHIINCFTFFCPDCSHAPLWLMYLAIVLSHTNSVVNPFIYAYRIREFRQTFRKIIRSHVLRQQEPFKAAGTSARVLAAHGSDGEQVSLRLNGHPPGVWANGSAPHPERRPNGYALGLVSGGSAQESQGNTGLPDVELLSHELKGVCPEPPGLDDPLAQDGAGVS",
  "test": "proximity ligation",
  "data": [
    {"binder": "B1", "values": [
      {"measurement": "fraction of D2R-A2AR complex relative to total A2AR (PLA puncta)", "value": "12.3 ± 1.8", "unit": "%"},
      {"measurement": "fraction of D2R-A2AR complex relative to total D2R (PLA puncta)", "value": "13.4 ± 5.3", "unit": "%"}
    ]}
  ]
}
